Data from PMC7040854.

What was measured:
FGFR2K^R678G (human) = assay: NMR CPMG relaxation dispersion
FGFR2K^R678E (human) = assay: NMR CPMG relaxation dispersion

Kd (FGFR2K^R678G (human)) [mM] | Kd (FGFR2K^R678E (human)) [mM] | Substance
55 | – | FGFR2K^R678G (domain or fragment)
– | 8 | FGFR2K^R678E (domain or fragment)
